Measurements: publication PMC2191090 (The Journal of Experimental Medicine, 1993)
Where no end group is shown, it is not given here. The star is where a group is joined. Biotin = O=C1N[C@H]2[C@H](CS[C@H]2CCCCC(=O)*)N1; 22‑Å spacer = not defined here

Experiments:
[1] = system: surface-expressed HLA-DR; test: Specificity of peptide binding to surface-expressed HLA-DR; set-up: species or system human; conditions: amino-terminal biotin via 22-A spacer
[2] = molecular target: HLA-DR7 (DRB1*0701) on Mann cells (human (endogenous in Mann)); test: flow cytometry on cells
[3] = molecular target: HLA-DR4 (DRB1*0401) on Priess cells (human (endogenous in Priess)); test: flow cytometry on cells
[4] = molecular target: HLA-DR2 (DRB1*1501/DRB5*0101) on MST cells (human (endogenous in MST)); test: flow cytometry on cells
[5] = molecular target: HLA-DR3 (DRB1*0301) on WT-20 cells (human (endogenous in WT-20)); test: flow cytometry on cells
[6] = molecular target: HLA-DR8 (DRB1*0801) on 23.1 cells (human (endogenous in 23.1)); test: flow cytometry on cells
[7] = molecular target: HLA-DR1 (DRB1*0101) on LG-2 cells (human (endogenous in LG-2)); test: flow cytometry on cells

| Molecule | effect of biotinylation on binding (in words) [1] | relative mean log fluorescence [2] | relative mean log fluorescence [3] | relative mean log fluorescence [4] | relative mean log fluorescence [5] | relative mean log fluorescence [6] | relative mean log fluorescence [7] |
| --- | --- | --- | --- | --- | --- | --- | --- |
| VGSDWRFLRGYHQYA [HLA-A2-1ike peptide 103-117] | interfered with the normal mode of binding |  |  |  |  |  |  |
| biotinylated synthetic Ig kappa chain C region peptide 188-202 |  | 171 | 189 |  |  |  |  |
| {Biotin-22‑Å spacer}-APSPLPETTENVVCALG (reading uncertain) [biotinylated synthetic HLA-DR alpha chain peptide 182-198] |  |  | 189 | 148 | 176 | 172 | 345 |
| {Biotin-22‑Å spacer}-LPKPPKPVSKMRMATPLLMQALPM (reading uncertain) [biotinylated synthetic invariant chain (Ii) peptide 97-120] |  | 288 | 215 |  |  |  |  |
